Results: IntAct's records for PubMed 19264781

B1: Protein Vpx (Human immunodeficiency virus type 2 subtype A (isolate Ghana-1)), P18045 (parent)
chain: MTDPRERVPPGNSGEETIGEAFEWLDRTIEALNREAVNHLPRELIFQVWQRSWRYWHDDQGMSPSYTKYRYLCLMQKAVFIHFKRGCTCLGGGHGPGGWRSGPPPPPPPGLV
B2: Protein Vpx (Simian immunodeficiency virus (isolate PBj14/BCL-3)), P19508 (parent)
chain: MSDPRERIPPGNSGEETIGEAFDWLDRTVEEINRAAVNHLPRELIFQVWRRSWEYWHDEMGMSVSYTKYRYLCLIQKAMFMHCKKGCRCLGGEHGAGGWRPGPPPPPPPGLA

Variants of: B1
Settings: with dcaf1_human DCAF1, Q9Y4B6
Target sequence in this assay (Q9Y4B6 whole entry): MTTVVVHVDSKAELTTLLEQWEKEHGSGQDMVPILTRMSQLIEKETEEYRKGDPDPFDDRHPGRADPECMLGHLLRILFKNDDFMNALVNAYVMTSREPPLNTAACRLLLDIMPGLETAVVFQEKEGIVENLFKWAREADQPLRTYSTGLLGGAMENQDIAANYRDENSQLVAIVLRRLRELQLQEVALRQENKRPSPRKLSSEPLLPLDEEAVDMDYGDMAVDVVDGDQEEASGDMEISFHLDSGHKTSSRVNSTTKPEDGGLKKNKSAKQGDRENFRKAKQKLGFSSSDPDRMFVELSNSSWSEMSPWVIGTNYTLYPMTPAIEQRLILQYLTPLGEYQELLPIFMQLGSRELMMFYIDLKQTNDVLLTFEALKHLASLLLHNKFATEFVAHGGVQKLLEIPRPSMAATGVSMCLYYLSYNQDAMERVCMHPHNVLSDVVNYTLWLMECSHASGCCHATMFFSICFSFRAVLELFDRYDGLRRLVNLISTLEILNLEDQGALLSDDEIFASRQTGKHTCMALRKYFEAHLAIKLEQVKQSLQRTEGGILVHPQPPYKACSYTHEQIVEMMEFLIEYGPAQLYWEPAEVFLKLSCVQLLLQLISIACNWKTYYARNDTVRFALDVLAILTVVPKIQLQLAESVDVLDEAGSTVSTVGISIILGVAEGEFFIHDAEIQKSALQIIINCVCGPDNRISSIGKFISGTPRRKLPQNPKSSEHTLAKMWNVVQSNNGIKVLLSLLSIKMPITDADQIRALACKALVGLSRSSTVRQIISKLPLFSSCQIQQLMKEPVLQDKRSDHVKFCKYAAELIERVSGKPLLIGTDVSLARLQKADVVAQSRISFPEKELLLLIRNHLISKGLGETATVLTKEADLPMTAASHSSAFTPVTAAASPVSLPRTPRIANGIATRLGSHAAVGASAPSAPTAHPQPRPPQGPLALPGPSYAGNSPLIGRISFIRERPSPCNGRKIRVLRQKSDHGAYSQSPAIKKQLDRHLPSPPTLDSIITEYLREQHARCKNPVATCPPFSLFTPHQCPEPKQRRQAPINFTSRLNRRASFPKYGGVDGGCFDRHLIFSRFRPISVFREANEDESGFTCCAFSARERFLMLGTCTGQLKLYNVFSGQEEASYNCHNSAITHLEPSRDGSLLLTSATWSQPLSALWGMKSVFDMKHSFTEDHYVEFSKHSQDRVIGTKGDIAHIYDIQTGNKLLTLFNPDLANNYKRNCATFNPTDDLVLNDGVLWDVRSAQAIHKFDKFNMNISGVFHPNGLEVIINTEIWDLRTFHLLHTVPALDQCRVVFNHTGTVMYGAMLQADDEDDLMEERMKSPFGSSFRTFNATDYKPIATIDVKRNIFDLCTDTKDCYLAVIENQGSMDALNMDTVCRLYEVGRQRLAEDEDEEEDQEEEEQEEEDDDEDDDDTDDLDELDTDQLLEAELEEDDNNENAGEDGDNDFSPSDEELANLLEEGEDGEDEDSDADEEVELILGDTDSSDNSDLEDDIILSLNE

| Variant | effect of a mutation on the interaction |
| --- | --- |
| MTDPRERVPPGNSGEETIGEAFEWLDRTIEALNREAVNHLPRELIFQVWQRSWRYWHDDQGMSPSYTKYRYLCLMRKAVFIHFKRGCTCLGGGHGPGGWRSGPPPPPPPGLV [Q76R] | disrupting interaction |

Variants of: B2
Settings: with dcaf1_human DCAF1, Q9Y4B6
Target sequence in this assay (Q9Y4B6 whole entry): as the sequence (Q9Y4B6 whole entry) above

| Variant | effect of a mutation on the interaction |
| --- | --- |
| MSDPRERIPPGNSGEETIGEAFDWLDRTVEEINRAAVNHLPRELIFQVWRRSWEYWHDEMGMSVSYTKYRYLCLIRKAMFMHCKKGCRCLGGEHGAGGWRPGPPPPPPPGLA [Q76R] | disrupting interaction |

Variants of: B2
Settings: with dcaf1_human DCAF1, Q9Y4B6
Remark: another data set of the same source
Target sequence in this assay (Q9Y4B6 whole entry): as the sequence (Q9Y4B6 whole entry) above

| Variant | effect of a mutation on the interaction |
| --- | --- |
| MSDPRERIPPGNSGEETIGEAFDWLDRTVEEINRAAVNHLPRELIFQVWRRSWEYWHDEMGMSVSYTKYRYLCLIQAAMFMHCKKGCRCLGGEHGAGGWRPGPPPPPPPGLA [K77A] | disrupting interaction |
